US20240190975A1

Biological target: human CCR8 (human) (UniProt P51685)
Experiment: cell-based or functional assay

Sequence of UniProt P51685 (P51685 whole entry): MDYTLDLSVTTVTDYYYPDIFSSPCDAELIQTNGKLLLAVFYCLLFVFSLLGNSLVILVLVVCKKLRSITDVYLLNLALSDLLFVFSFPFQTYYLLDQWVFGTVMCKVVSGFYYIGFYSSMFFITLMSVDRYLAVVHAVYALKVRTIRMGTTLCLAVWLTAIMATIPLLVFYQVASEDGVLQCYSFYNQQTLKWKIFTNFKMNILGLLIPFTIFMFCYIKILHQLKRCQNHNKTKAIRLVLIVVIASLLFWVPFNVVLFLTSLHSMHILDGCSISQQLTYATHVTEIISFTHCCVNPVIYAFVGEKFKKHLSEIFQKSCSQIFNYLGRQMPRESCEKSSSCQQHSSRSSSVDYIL

## anti-human CCR8 antibody (clone name: L263G8, BioLegend, Inc.)
  inhibition of the cytotoxic activity of aCCR8-2-CAR-12-expressing KHYG-1 cells against ATN-1 cells (calcein), antibody at 33 nM added 10 minutes before the effector cells: > 50%
